Results from the RNAGym collection of RNA variant scans (doi:10.1021/acssynbio.7b00057).

B1: Pistol ribozyme (parent)
chain: GGGUCGUUGUUCCAUAAUCGCGUGGAUAUGGCACGCAAGUUUCUACCGGGCACCGUAAAUGUCCGACUGGAGCCGUUCGGGCGGCUAUAAACAGACCUCAGGCCCGAAGCGUGGCGGCACCUGCCGCCGGUGGUAAAAAAGAUCGGAAGAGCACACGUCU

Variants of: B1
Experiment: aptazyme ON/OFF ratio, guanine; higher = stronger switching; co-transcriptional cleavage with and without guanine

Variant	aptazyme ON/OFF ratio
GGGUCGAAGAUUUAUAAUCGCGUGGAUAUGGCACGCAAGUUUCUACCGGGCACCGUAAAUGUCCGACUGGAGCCGUUCGGGCGGCUAUAAACAGACCUCAGGCCCGAAGCGUGGCGGCACCUGCCGCCGGUGGUAAAAAAGAUCGGAAGAGCACACGUCU [U7A U8A U10A C12U C13U]	1.2
GGGUCGAAGAUUGAUAAUCGCGUGGAUAUGGCACGCAAGUUUCUACCGGGCACCGUAAAUGUCCGACUGGAGCCGUUCGGGCGGCUAUAAACAGACCUCAGGCCCGAAGCGUGGCGGCACCUGCCGCCGGUGGUAAAAAAGAUCGGAAGAGCACACGUCU [U7A U8A U10A C12U C13G]	1.1
GGGUCGAAGAUUAAUAAUCGCGUGGAUAUGGCACGCAAGUUUCUACCGGGCACCGUAAAUGUCCGACUGGAGCCGUUCGGGCGGCUAUAAACAGACCUCAGGCCCGAAGCGUGGCGGCACCUGCCGCCGGUGGUAAAAAAGAUCGGAAGAGCACACGUCU [U7A U8A U10A C12U C13A]	1.28
GGGUCGAAGAAGUAUAAUCGCGUGGAUAUGGCACGCAAGUUUCUACCGGGCACCGUAAAUGUCCGACUGGAGCCGUUCGGGCGGCUAUAAACAGACCUCAGGCCCGAAGCGUGGCGGCACCUGCCGCCGGUGGUAAAAAAGAUCGGAAGAGCACACGUCU [U7A U8A U10A U11A C12G C13U]	1.13
GGGUCGAAGAAGGAUAAUCGCGUGGAUAUGGCACGCAAGUUUCUACCGGGCACCGUAAAUGUCCGACUGGAGCCGUUCGGGCGGCUAUAAACAGACCUCAGGCCCGAAGCGUGGCGGCACCUGCCGCCGGUGGUAAAAAAGAUCGGAAGAGCACACGUCU [U7A U8A U10A U11A C12G C13G]	1.45
GGGUCGAAGAAGAAUAAUCGCGUGGAUAUGGCACGCAAGUUUCUACCGGGCACCGUAAAUGUCCGACUGGAGCCGUUCGGGCGGCUAUAAACAGACCUCAGGCCCGAAGCGUGGCGGCACCUGCCGCCGGUGGUAAAAAAGAUCGGAAGAGCACACGUCU [U7A U8A U10A U11A C12G C13A]	1.05
GGGUCGAAGAUUCAUAAUCGCGUGGAUAUGGCACGCAAGUUUCUACCGGGCACCGUAAAUGUCCGACUGGAGCCGUUCGGGCGGCUAUAAACAGACCUCAGGCCCGAAGCGUGGCGGCACCUGCCGCCGGUGGUAAAAAAGAUCGGAAGAGCACACGUCU [U7A U8A U10A C12U]	1.11
GGGUCGAAGACGAAUAAUCGCGUGGAUAUGGCACGCAAGUUUCUACCGGGCACCGUAAAUGUCCGACUGGAGCCGUUCGGGCGGCUAUAAACAGACCUCAGGCCCGAAGCGUGGCGGCACCUGCCGCCGGUGGUAAAAAAGAUCGGAAGAGCACACGUCU [U7A U8A U10A U11C C12G C13A]	1.06
GGGUCGAAGACGUAUAAUCGCGUGGAUAUGGCACGCAAGUUUCUACCGGGCACCGUAAAUGUCCGACUGGAGCCGUUCGGGCGGCUAUAAACAGACCUCAGGCCCGAAGCGUGGCGGCACCUGCCGCCGGUGGUAAAAAAGAUCGGAAGAGCACACGUCU [U7A U8A U10A U11C C12G C13U]	1.15
GGGUCGAAGACGGAUAAUCGCGUGGAUAUGGCACGCAAGUUUCUACCGGGCACCGUAAAUGUCCGACUGGAGCCGUUCGGGCGGCUAUAAACAGACCUCAGGCCCGAAGCGUGGCGGCACCUGCCGCCGGUGGUAAAAAAGAUCGGAAGAGCACACGUCU [U7A U8A U10A U11C C12G C13G]	1.24
GGGUCGAAGAUCUAUAAUCGCGUGGAUAUGGCACGCAAGUUUCUACCGGGCACCGUAAAUGUCCGACUGGAGCCGUUCGGGCGGCUAUAAACAGACCUCAGGCCCGAAGCGUGGCGGCACCUGCCGCCGGUGGUAAAAAAGAUCGGAAGAGCACACGUCU [U7A U8A U10A C13U]	1.06
GGGUCGAAGAUCGAUAAUCGCGUGGAUAUGGCACGCAAGUUUCUACCGGGCACCGUAAAUGUCCGACUGGAGCCGUUCGGGCGGCUAUAAACAGACCUCAGGCCCGAAGCGUGGCGGCACCUGCCGCCGGUGGUAAAAAAGAUCGGAAGAGCACACGUCU [U7A U8A U10A C13G]	1.06
GGGUCGAAGAUCAAUAAUCGCGUGGAUAUGGCACGCAAGUUUCUACCGGGCACCGUAAAUGUCCGACUGGAGCCGUUCGGGCGGCUAUAAACAGACCUCAGGCCCGAAGCGUGGCGGCACCUGCCGCCGGUGGUAAAAAAGAUCGGAAGAGCACACGUCU [U7A U8A U10A C13A]	1.11
GGGUCGAAGAACAAUAAUCGCGUGGAUAUGGCACGCAAGUUUCUACCGGGCACCGUAAAUGUCCGACUGGAGCCGUUCGGGCGGCUAUAAACAGACCUCAGGCCCGAAGCGUGGCGGCACCUGCCGCCGGUGGUAAAAAAGAUCGGAAGAGCACACGUCU [U7A U8A U10A U11A C13A]	1.16
GGGUCGAAGAACUAUAAUCGCGUGGAUAUGGCACGCAAGUUUCUACCGGGCACCGUAAAUGUCCGACUGGAGCCGUUCGGGCGGCUAUAAACAGACCUCAGGCCCGAAGCGUGGCGGCACCUGCCGCCGGUGGUAAAAAAGAUCGGAAGAGCACACGUCU [U7A U8A U10A U11A C13U]	1.11
GGGUCGAAGAACGAUAAUCGCGUGGAUAUGGCACGCAAGUUUCUACCGGGCACCGUAAAUGUCCGACUGGAGCCGUUCGGGCGGCUAUAAACAGACCUCAGGCCCGAAGCGUGGCGGCACCUGCCGCCGGUGGUAAAAAAGAUCGGAAGAGCACACGUCU [U7A U8A U10A U11A C13G]	1.18
GGGUCGAAGAAACAUAAUCGCGUGGAUAUGGCACGCAAGUUUCUACCGGGCACCGUAAAUGUCCGACUGGAGCCGUUCGGGCGGCUAUAAACAGACCUCAGGCCCGAAGCGUGGCGGCACCUGCCGCCGGUGGUAAAAAAGAUCGGAAGAGCACACGUCU [U7A U8A U10A U11A C12A]	1.18
GGGUCGAAGAAGCAUAAUCGCGUGGAUAUGGCACGCAAGUUUCUACCGGGCACCGUAAAUGUCCGACUGGAGCCGUUCGGGCGGCUAUAAACAGACCUCAGGCCCGAAGCGUGGCGGCACCUGCCGCCGGUGGUAAAAAAGAUCGGAAGAGCACACGUCU [U7A U8A U10A U11A C12G]	1.19
